This is an account of results in patent US20240109955A1.

What all share (assay): cell-based or functional assay
Test [1] addresses SARS-CoV-2 Omicron BA.1 spike protein (SARS-CoV-2) (UniProt P0DTC2).
Test [2] has as its target SARS-CoV-2 Omicron BA.4/5 spike protein ([change]) (SARS-CoV-2) (UniProt P0DTC2).
The target of test [3] is SARS-CoV-2 spike protein, Omicron sublineage BA.2 (SARS-CoV-2) (UniProt P0DTC2).
The target in test [4] is SARS-CoV-2 spike protein, Omicron sublineage BA.2.12.1 (SARS-CoV-2) (UniProt P0DTC2).
Test [5] addresses SARS-CoV-2 Omicron BA.2.75.2 spike protein (SARS-CoV-2).
For test [6], the target named is SARS-CoV-2 Omicron BA.4/5 spike protein (SARS-CoV-2).
The target in test [7] is SARS-CoV-2 Omicron BQ.1.1 spike protein (SARS-CoV-2).
In test [8] the target is SARS-CoV-2 spike (S) protein, Omicron sublineage BA.2.75.2 (SARS-CoV-2).
The target of test [9] is SARS-CoV-2 spike (S) protein, Omicron sublineage BA.4/5 (SARS-CoV-2).
For test [10], the target named is SARS-CoV-2 spike (S) protein, Omicron sublineage BQ.1.1 (SARS-CoV-2).
For test [11], the target named is SARS-CoV-2 spike protein, Omicron BA.4/5 (SARS-CoV-2).
Test [12] concerns the target SARS-CoV-2 spike protein, Omicron BQ.1.1 (SARS-CoV-2).
The target of test [13] is SARS-CoV-2 spike protein, Omicron sublineage BA.4/5 (SARS-CoV-2) (UniProt P0DTC2).
Test [14] deals with SARS-CoV-2 spike protein, Omicron sublineage BF.7 (SARS-CoV-2) (UniProt P0DTC2).
Test [15] deals with SARS-CoV-2 spike protein, Omicron sublineage BQ.1.1 (SARS-CoV-2) (UniProt P0DTC2).
Test [16] deals with SARS-CoV-2 spike protein, Omicron sublineage XBB1.5 (SARS-CoV-2) (UniProt P0DTC2).
For test [17], the target named is SARS-CoV-2 Omicron BA.2.75.2 spike protein (SARS-CoV-2) (UniProt P0DTC2).
For test [18], the target named is SARS-CoV-2 Omicron BQ.1.1 spike protein (SARS-CoV-2) (UniProt P0DTC2).
Test [19] has as its target SARS-CoV-2 Omicron XBB spike protein (SARS-CoV-2) (UniProt P0DTC2).
Test [20] concerns the target SARS-CoV-2 spike protein, Omicron sublineage XBB (SARS-CoV-2) (UniProt P0DTC2).

Sequence of MX492 (A19-46 x A23-58H/B1-182L) (bispecific antibody) (chain): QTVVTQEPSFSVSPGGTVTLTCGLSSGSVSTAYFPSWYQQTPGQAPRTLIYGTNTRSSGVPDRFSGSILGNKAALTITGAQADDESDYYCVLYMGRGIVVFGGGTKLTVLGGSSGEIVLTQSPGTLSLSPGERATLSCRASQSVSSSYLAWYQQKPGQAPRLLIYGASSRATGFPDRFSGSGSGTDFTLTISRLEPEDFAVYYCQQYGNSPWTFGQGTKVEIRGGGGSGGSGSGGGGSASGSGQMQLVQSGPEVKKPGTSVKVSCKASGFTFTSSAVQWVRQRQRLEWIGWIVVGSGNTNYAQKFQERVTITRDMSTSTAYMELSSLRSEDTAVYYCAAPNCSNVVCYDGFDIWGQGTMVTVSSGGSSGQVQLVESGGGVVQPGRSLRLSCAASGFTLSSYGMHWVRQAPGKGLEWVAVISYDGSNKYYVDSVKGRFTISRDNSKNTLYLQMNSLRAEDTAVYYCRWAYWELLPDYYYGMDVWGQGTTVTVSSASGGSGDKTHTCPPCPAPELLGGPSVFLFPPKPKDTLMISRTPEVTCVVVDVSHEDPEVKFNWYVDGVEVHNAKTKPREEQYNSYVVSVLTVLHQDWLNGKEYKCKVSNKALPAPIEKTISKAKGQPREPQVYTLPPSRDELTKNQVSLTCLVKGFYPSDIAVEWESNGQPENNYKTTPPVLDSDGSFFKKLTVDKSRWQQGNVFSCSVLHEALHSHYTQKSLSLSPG
Sequence of MX413 (A19-61 x A23-58H/B1-182L) (bispecific antibody) (chain): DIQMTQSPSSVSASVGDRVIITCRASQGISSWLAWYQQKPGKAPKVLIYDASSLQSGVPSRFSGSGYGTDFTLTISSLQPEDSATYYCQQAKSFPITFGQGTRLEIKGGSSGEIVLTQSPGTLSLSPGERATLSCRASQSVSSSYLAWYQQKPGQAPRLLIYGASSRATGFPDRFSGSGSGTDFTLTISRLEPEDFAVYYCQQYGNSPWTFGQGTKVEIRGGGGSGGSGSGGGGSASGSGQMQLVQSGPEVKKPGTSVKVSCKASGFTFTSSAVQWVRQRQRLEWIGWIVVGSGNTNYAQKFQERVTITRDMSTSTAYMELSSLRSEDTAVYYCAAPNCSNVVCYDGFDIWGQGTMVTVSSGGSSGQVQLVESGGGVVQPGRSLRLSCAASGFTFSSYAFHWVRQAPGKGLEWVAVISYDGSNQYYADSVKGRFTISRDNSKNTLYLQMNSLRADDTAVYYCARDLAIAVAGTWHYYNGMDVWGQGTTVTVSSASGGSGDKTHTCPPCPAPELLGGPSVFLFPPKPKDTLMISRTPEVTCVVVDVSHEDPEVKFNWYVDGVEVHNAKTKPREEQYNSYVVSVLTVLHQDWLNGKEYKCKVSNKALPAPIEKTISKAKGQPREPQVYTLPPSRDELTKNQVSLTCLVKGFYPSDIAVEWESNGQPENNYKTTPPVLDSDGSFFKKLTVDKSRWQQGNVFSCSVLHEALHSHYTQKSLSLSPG
Sequence of A19-46.1 (antibody) (VH): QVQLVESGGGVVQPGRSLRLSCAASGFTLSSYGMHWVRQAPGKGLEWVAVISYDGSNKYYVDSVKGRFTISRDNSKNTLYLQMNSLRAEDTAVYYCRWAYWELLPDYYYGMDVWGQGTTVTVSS
Sequence of A19-46.1 (antibody) (VL): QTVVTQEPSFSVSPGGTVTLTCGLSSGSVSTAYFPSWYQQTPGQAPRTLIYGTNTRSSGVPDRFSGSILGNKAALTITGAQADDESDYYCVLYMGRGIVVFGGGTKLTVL
Sequence of A19-46 (antibody) (VH): as the sequence (VH) above
Sequence of A19-46 (antibody) (VL): as the sequence (VL) above

In the case of “MX492 (A19-46 x A23-58H/B1-182L) (bispecific antibody)”, the IC50, pseudovirus neutralization in [1] was 1 nM; in test [2] it was above 10000 nM. Moreover, the IC80, pseudovirus neutralization is 3 nM in [1] and above 10000 nM in test [2].

On to A19-46.1 (antibody), for which the IC50, pseudovirus neutralization in [1] was 77 nM; in test [2], above 10000 nM. For the same substance, the IC80, pseudovirus neutralization was 211 nM in [1] and above 10000 nM in test [2].

Regarding B1-182.1 (antibody), the IC50, pseudovirus neutralization in test [3] was found to be 320 nM; in test [4] it was 165 nM. The IC80, pseudovirus neutralization is 1210 nM in test [3] and 1380 nM in test [4].

In test [1], A19-61.1 (antibody) registered an IC50, pseudovirus neutralization above 10000 nM and an IC80, pseudovirus neutralization above 10000 nM. In test [2], this substance showed an IC50, pseudovirus neutralization of 19 nM and an IC80, pseudovirus neutralization of 31 nM.

Consider S2E12 (antibody), for which the IC50, pseudovirus neutralization in test [3] was 9.9 nM; in test [4], 15.6 nM. Further, the IC80, pseudovirus neutralization stood at 48.2 nM in [3] and 46.6 nM in [4].

On to A19-46 (antibody), for which the IC50, pseudovirus neutralization is above 10 µg/mL in [5]; above 10 µg/mL in test [6]; 0.386 µg/mL in test [7]; above 10 µg/mL in [8]; above 10 µg/mL in [9]; 0.386 µg/mL in [10]. Also, the IC50, pseudovirus neutralization in test [11] is above 10 µg/mL; in test [12] it was 0.386 µg/mL; in [13] it was above 10000 nM; in test [14] it was 5300 nM; in test [15] it was 386 nM; in test [16], above 10000 nM. Also, the IC80, pseudovirus neutralization in [5] is above 10 µg/mL; in test [6], above 10 µg/mL; in test [7], 1.11 µg/mL; in [8], above 10 µg/mL; in test [9], above 10 µg/mL; in test [10], 1.11 µg/mL. Also, the IC80, pseudovirus neutralization in test [11] is above 10 µg/mL; in test [12], 1.11 µg/mL; in test [13], above 10000 nM; in test [14], above 10000 nM; in test [15] it was 1110 nM; in test [16], above 10000 nM.

Take bebtelovimab (antibody): the IC50, pseudovirus neutralization in [1] is 1 nM; in [17], 0.00567 µg/mL; in test [18], above 10 µg/mL; in [19] it was above 10 µg/mL; in test [3], 14.3 nM; in [4], 8.52 nM. In addition, the IC50, pseudovirus neutralization in [13] was 1.88 nM; in [14] it was 3.28 nM; in [15] it was above 10000 nM; in test [20] it was above 10000 nM; in [16], above 10000 nM. In addition, the IC80, pseudovirus neutralization was 7 nM in [1]; 0.0207 µg/mL in test [17]; 1 nM in test [2]; above 10 µg/mL in test [18]; above 10 µg/mL in test [19]; 18.5 nM in test [3]. Moreover, the IC80, pseudovirus neutralization in [4] was 14.8 nM; in [13], 3.74 nM; in [14] it was 26.9 nM; in test [15], above 10000 nM; in [20], above 10000 nM; in test [16] it was above 10000 nM.

In test [1], A23-58H/B1-182L hybrid antibody gave an IC50, pseudovirus neutralization of 53 nM and an IC80, pseudovirus neutralization of 90 nM. In test [2], the IC50, pseudovirus neutralization is above 10000 nM and the IC80, pseudovirus neutralization was above 10000 nM.

In test [1], “MX413 (A19-61 x A23-58H/B1-182L) (bispecific antibody)” came in with an IC50, pseudovirus neutralization of 1290 nM and an IC80, pseudovirus neutralization of 6540 nM. In test [2], this substance showed an IC50, pseudovirus neutralization of 4 nM and an IC80, pseudovirus neutralization of 8 nM.

On to A23-58.1 (antibody), for which, in test [3], the IC50, pseudovirus neutralization was 263 nM and the IC80, pseudovirus neutralization is 1080 nM. In [4], this substance came in with an IC50, pseudovirus neutralization of 100 nM and an IC80, pseudovirus neutralization of 504 nM.
